Paper PMC3062784 (Biochimica et Biophysica Acta, 2011)
Several values for one entry are separate records, joined by “and”; a condition that tells them apart may be missing. Equal values may be shown once.

Columns and labels:
[1] = biological target: the molecule itself; test: cross-linking
[2] = biological target: the molecule itself; test: native gel or EMSA

B1: C-terminally triple HA-tagged Pun1p expressed via the MET25 promoter from plasmid YEpM-PUN1-HA (natural protein, S. cerevisiae, UniProt Q06991 1-263, looked up)
chain: MRNFFTLFFAAIFSLGALILAIVACAGSTKNYSPINKIYCAELDLSQMKVSTVLPSLSSATLSSLGLPSYINIGLWSYCTVDSSHNIQSCSSPHGIQNFNLSSLVYDNINNNEALELMDSVASVVLPEKLKSKMTYYNNLVKCMFITILIGIVLTFVNLVFNVLRWIIHIRPLTWFGAFFSFFAFAALLVSIGSCLGTYSYIKYILKHNYSDYGISMSIGRNYQGLMWGAVVGALLNFILWCSVRSRPTVIYANAPIEEKPLI
[1]
  stoichiometry N: 2 and 4 and 6
[2]
  stoichiometry N: 10 and 12 and 8
